Like-named read-outs stand apart in the source and are kept apart here. Each block holds one molecule with its values, some of them ahead of it. No end group written: not given here.
How the values were obtained:
[1] = target: activated protein C (APC) (human)
[2] = target: Factor Va (activated Factor V)
[3] = target: human activated Factor X (Xa) (human)
[4] = target: human activated Factor X (Xa) (human); remark: listed apart in the source
[5] = target: Factor Va (activated Factor V); remark: listed apart in the source
[6] = target: Factor IXa (Homo sapiens (Human))
[7] = target: Factor IXa (Homo sapiens (Human)); design: unit not given beside the values
[8] = target: activated protein C (APC) (human); remark: listed apart in the source
[9] = target: activated protein C (APC) (human); remark: listed apart in the source
[10] = target: activated protein C (APC) (human); remark: listed apart in the source
[11] = target: human activated Factor X (Xa) (human); remark: listed apart in the source
[12] = target: Factor Va (activated Factor V); remark: listed apart in the source
[13] = target: activated protein C (APC) (human); remark: listed apart in the source
[14] = target: Factor Va (activated Factor V); remark: listed apart in the source
[15] = target: Factor Va (activated Factor V); remark: listed apart in the source

Molecule: synthetic peptide PC65-79
- Inhibition of APC (%), Xa-1 stage coagulation assay in NHP, 500 µM peptide [1]: 0%

Molecule: synthetic peptide PC48-62
- Inhibition of APC (%), Xa-1 stage coagulation assay in NHP, 500 µM peptide [1]: 0%

Molecule: synthetic peptide PC110-124
- Inhibition of APC (%), Xa-1 stage coagulation assay in NHP, 500 µM peptide [1]: 0%

Molecule: activated protein C (APC) (enzyme)
- rate of Factor Va inactivation (% Vi/min), 5 nM APC and 40 nM Va, no phospholipids [5]: 4 % Vi/min

Molecule: HKGRSALVLQYLRVPL-NH2 [synthetic peptide IX315-330]
- IC50, tenase assay (Factor Xa generation) in the presence of Factor VIIIa [6]: 2 µM
- IC50, tenase assay in the absence of VIIIa [6]: 40 to 60 µM
- IC50, Factor IXa-1 stage clotting assay [7]: 30

Molecule: YGIYTKVSRYVNWIK-NH2 [synthetic peptide IX395-409]
- IC50, tenase assay (Factor Xa generation) in the presence of Factor VIIIa [6]: 6 µM
- IC50, tenase assay in the absence of VIIIa [6]: 40 to 60 µM
- IC50, Factor IXa-1 stage clotting assay [7]: 25

Molecule: LVLQYLRVPLVDRAT-NH2 [synthetic peptide IX321-335]
- IC50, tenase assay in the presence of Factor VIIIa [6]: 100 to 140 µM
- IC50, Factor IXa-1 stage clotting assay [7]: 30

Molecule: KVSRYVNWIKEKTKL-NH2 [synthetic peptide IX400-414]
- IC50, tenase assay in the presence of Factor VIIIa [6]: 100 to 140 µM
- IC50, Factor IXa-1 stage clotting assay [7]: 50

Molecule: DTLAFWSKHVDGDQC-NH2 (also: native Cys substituted by Ser or Gly, which position not given here) [synthetic peptide PC36-50]
- Inhibition of APC (%), Xa-1 stage coagulation assay in NHP, 500 µM peptide [1]: 0%

Molecule: KHVDGDQCLVLPLEH-NH2 (also: native Cys substituted by Ser or Gly, which position not given here) [synthetic peptide PC43-57]
- Inhibition of APC (%), Xa-1 stage coagulation assay in NHP, 500 µM peptide [1]: 0%

Molecule: RSGWEGRFCQREVSF-NH2 (also: native Cys substituted by Ser or Gly, which position not given here) [synthetic peptide PC81-95]
- Inhibition of APC (%), Xa-1 stage coagulation assay in NHP, 500 µM peptide [1]: 40%

Molecule: MHKLREGKWRPKSR-NH2 [scrambled peptide with a randomized sequence of residues 142-155]
- APC amidolytic activity towards S-2366, change in A405/5 minutes (none: 0.374) (A405/5 minutes) [8]: 0.364
- Factor Xa clotting activity in NHP (0.15 nM factor Xa) [11]: 37%
- prothrombinase activity in the presence of Factor Va [15]: 40%

Molecule: VKFTIRVFNPRNLKI-NH2 [control peptide with a randomized sequence of residues 311-325]
- Factor Xa clotting activity in NHP (0.15 nM factor Xa) [11]: 30%

Further lines, results first:

- IC50, prothrombinase assay in the presence of Factor Va (1 nM Xa, 0.4 nM Va, 1.2 uM prothrombin) [2]: 10 µM
- IC50, Factor Xa-1 stage clotting assay [3]: 25 µM
Molecule: synthetic peptide PT473-487

- IC50, prothrombinase assay in the absence of Factor Va [4]: 80 µM
- IC50, prothrombinase assay in the presence of Factor Va [4]: 40 µM
- IC50, Factor Xa-1 stage clotting assay [3]: 50 µM
Molecule: synthetic peptide PT557-571

- IC50, Factor Xa-1 stage clotting assay [3]: > 500 µM
Molecule: synthetic peptide PT463-478

- IC50, tenase assay in the presence of VIIIa [6]: 150 µM
- IC50, prothrombinase assay in the presence of Factor Va (1 nM Xa, 0.4 nM Va, 1.2 uM prothrombin) [2]: 75 µM
- IC50, Factor Xa-1 stage clotting assay [3]: 50 µM
- IC50, Factor IXa-1 stage clotting assay [7]: 50
Molecule: ARKGKYGIYTKVTAF-NH2 [synthetic peptide X404-418]

- IC50, tenase assay in the presence of VIIIa [6]: 45 µM
- IC50, prothrombinase assay with or without Factor Va [4]: 500 µM
- IC50, Factor Xa-1 stage clotting assay [3]: 115 µM
- IC50, Factor IXa-1 stage clotting assay [7]: 0
Molecule: VTAFLKWIDRSMKTR-NH2 [synthetic peptide X415-429]

- APC amidolytic activity towards S-2366, change in A405/5 minutes (none: 0.374) (A405/5 minutes) [8]: 0.342
- IC90** (concentration of peptide that inhibits 90% of APC anticoagulant activity), mean of APTT and Xa-1 stage coagulation assays in NHP [9]: 50 µM
- 50% inhibition of APC anticoagulant activity in APTT and Xa-1-stage assays in NHP and PSDP [10]: 7 to 20 µM
- Factor Xa clotting activity in NHP (0.15 nM factor Xa) [11]: 7 µM
- prothrombinase activity in the presence of Factor Va (1 nM Xa, 0.4 nM Va, 1.2 µM prothrombin) [12]: 8 µM
- APC-catalyzed inactivation of Factor Va in the absence of phospholipids [5]: 87%
- half-maximal inhibition of the APC-catalyzed inactivation of Factor Va, with phospholipid vesicles [5]: 6 µM
Molecule: KRNRTFVLNFIKIPV-NH2 [synthetic peptide PC311-325]

- IC90** (concentration of peptide that inhibits 90% of APC anticoagulant activity), mean of APTT and Xa-1 stage coagulation assays in NHP [9]: 500 µM
Molecule: VLNFIKIPVVPHNEC-NH2 [synthetic peptide PC317-331]

- Inhibition of APC (%), Xa-1 stage coagulation assay in NHP, 500 µM peptide [1]: 0%
Molecule: APGYKLGDDLLQCHP-NH2 (also: native Cys substituted by Ser or Gly, which position not given here) [synthetic peptide PC121-135]

- Inhibition of APC (%), Xa-1 stage coagulation assay in NHP, 500 µM peptide [1]: 30%
Molecule: KLGDDLLQCHPAVKF-NH2 (also: native Cys substituted by Ser or Gly, which position not given here) [synthetic peptide PC125-139]

- Inhibition of APC (%), Xa-1 stage coagulation assay in NHP, 500 µM peptide [1]: 66%
- 50% inhibition of APC anticoagulant activity, Xa-1-stage assay in NHP [13]: 250 µM
Molecule: HPAVKFPCGRPWKRM-NH2 (also: native Cys substituted by Ser or Gly, which position not given here) [synthetic peptide PC134-148]

- APC amidolytic activity towards S-2366, change in A405/5 minutes (none: 0.374) (A405/5 minutes) [8]: 0.344
- Inhibition of APC (%), Xa-1 stage coagulation assay in NHP, 500 µM peptide [1]: 80%
- Factor Xa clotting activity in NHP (0.15 nM factor Xa) [11]: 10 µM
- prothrombinase activity in the presence of Factor Va [12]: 40 µM
- APC-catalyzed inactivation of Factor Va in the absence of phospholipids [14]: 87%
- half-maximal inhibition of the APC-catalyzed inactivation of Factor Va, with phospholipid vesicles [14]: 50 µM
- 50% inhibition of APC anticoagulant activity, Xa-1-stage coagulation assay in NHP [13]: 25 µM
- 50% inhibition of APC anticoagulant activity, Xa-1-stage coagulation assay in protein S-depleted plasma [13]: 5 µM
Molecule: GRPWKRMEKKRSHLC-NH2 [synthetic peptide PC142-155 with an additional carboxy-terminal cysteine]

- IC50, Factor Xa-1 stage clotting assay [3]: > 500 µM
Molecule: QVVNLPIVERPVSKD-NH2 (not fully specified) [synthetic peptide PT481-495]

- IC50, Factor Xa-1 stage clotting assay [3]: 500 µM
Molecule: EKGRQSTRLKMLEVPY-NH2 [synthetic peptide X329-344]

From US5679639
